Assay results: patent US20230357411A1 (published 2023)
Where a chain is given by its changes, count along the chain named. One block for each binder: values may come before it.

Legend:
[1] = biological target: TrkA protein on the surface of NIH-3T3-TrkA cells; assay: cell-based or functional assay
[2] = biological target: CD16 receptor (Fc gamma RIIIA) on Jurkat-NFAT-Luc-CD16 cells (UniProt P08637 17-254, limits assumed); assay: cell-based or functional assay
[3] = biological target: T1, Mouse-TrKA on the surface of HEK293T-MouseTrKA cells (mouse, UniProt Q3UFB7 34-799); assay: flow cytometry competition: inhibition of biotinylated Mouse-NGF binding to HEK293T-MouseTrkA cells
T1 construct: whole, on cells
Text: (§1) Mouse-NGF was biotinylated, and Mouse-NGF could bind to the extracellular region of Mouse-TrkA protein on HEK293T-MouseTrkA cells, and anti-TrkA monoclonal antibodies could also bind to the extracellular region of Mouse-TrkA protein on HEK293T-MouseTrkA cells. […] In the FIG. 5, the parent% value reflected the Mouse-NGF signal that bound to the extracellular region of the Mouse-TrKA protein on HEK293T-MouseTrkA cells.

[4] = biological target: T1, Mouse-TrKA on the surface of …; assay: flow cytometry on HEK293T-MouseTrkA cells
Experimental: (§2) Lentiviral technology was used to construct HEK293T-MouseTrkA cell model. […] Flow cytometry was used to detect the binding of each concentration gradient humanized antibody to the […] on the surface of HEK293T-MouseTrKA cells, and the binding ability of each humanized antibody to Mouse-TrKA was evaluated at the cellular level. In the FIG. 3, the EC50 (half binding concentration) value reflected the binding ability of the antibody to Mouse-TrKA; the smaller the EC50 value, the stronger the binding ability of the antibody to Mouse-TrKA, and the higher the affinity of the antibody. It was generally believed that the EC50 value of high-affinity antibodies was lower than 1.5 μg/mL.

[5] = biological target: T2, Human-TrKA receptor on the surface of HEK293T-HumanTrKA cells (human, UniProt P04629 33-796); assay: flow cytometry on HEK293T-HumanTrkA cells
T2 construct: whole, on cells
Experimental: as §2, with “HEK293T-HumanTrkA” for “HEK293T-MouseTrkA”, “HEK293T-HumanTrKA” for “HEK293T-MouseTrKA”, “Human-TrKA” for “Mouse-TrKA”, “2,” for “3,”, “Human-TrKA;” for “Mouse-TrKA;”, “Human-TrKA,” for “Mouse-TrKA,”

[6] = biological target: T2, Human-TrKA receptor on the surface of …; assay: flow cytometry competition: inhibition of biotinylated Human-NGF binding to HEK293T-HumanTrkA cells
Text: as §1, with “Human-NGF” for “Mouse-NGF”, “Human-TrkA” for “Mouse-TrkA”, “HEK293T-HumanTrkA” for “HEK293T-MouseTrkA”, “4,” for “5,”, “Human-TrKA” for “Mouse-TrKA”

B3: humanized anti-TrkA monoclonal antibody H3L1-IgG4 (antibody, V domains shown)
VH: EVQLLESGGGLVQPGGSLKLSCKASGYAFTNYWLGWMKQRPGHGLEWIGDFYPRTGNTFYNENFKGQVTMSVDKSITTAYLQWNSLKASDTAMYYCARAGTGFDYWGQGTTLTVSS
VL: EIVMTQSPATLSLSVGERVTLSCKASENVGGYVSWYQQKPDQSPKLLIYGASSRHTGVPDRFTGSGSETDFTLTISSVQAEDLAAYHCGQNYIYPFTFGGGTKLEIKR
IC50 [3]: 0.283 µg/mL
EC50 [5]: 0.127 µg/mL
EC50 [4]: 0.111 µg/mL
IC50 [6]: 0.741 µg/mL

B4: humanized anti-TrkA monoclonal antibody H3L2-IgG4 (antibody, V domains shown)
VH: B3 VH
VL: B3 VL with H55A
IC50 [3]: 0.252 µg/mL
EC50 [5]: 0.168 µg/mL
EC50 [4]: 0.125 µg/mL
IC50 [6]: 0.665 µg/mL

The next lines start with results.

ADCC activity, luciferase reporter (Mean Value), half of the peak concentration EC50 [2]: 0.0228 µg/mL
B1: humanized anti-TrkA monoclonal antibody H1L1-IgG1 (antibody)
VH: EVQLLESGGGLVQPGGSLKLSCKASGYAFTNYWLGWMKQRPGHGLEWIGDFYPRTGNTFYNENFKGKVTLTADKSSNTAYMQLSSLTSEDSAVYLCARAGTGFDYWGQGTTLTVSS
light: EIVMTQSPATLSLSVGERVTLSCKASENVGGYVSWYQQKPDQSPKLLIYGASSRHTGVPDRFTGSGSETDFTLTISSVQAEDLAAYHCGQNYIYPFTFGGGTKLEIKRTVAAPSVFIFPPSDEQLKSGTASVVCLLNNFYPREAKVQWKVDNALQSGNSQESVTEQDSKDSTYSLSSTLTLSKADYEKHKVYACEVTHQGLSSPVTKSFNRGEC
CDC activity, killing of NIH-3T3-TrKA cells (CCK8 cell viability), half-peak concentration IC50 [1]: 0.222 µg/mL

IC50 [3]: 0.385 µg/mL
down-regulation of the level of TrkA protein tyrosine phosphorylation under NGF stimulation (AlphaLISA, p-TrkA), IC50 [1]: 0.0207 µg/mL
EC50 [4]: 0.134 µg/mL
B2: humanized anti-TrkA monoclonal antibody H1L1-IgG4 (antibody)
heavy: EVQLLESGGGLVQPGGSLKLSCKASGYAFTNYWLGWMKQRPGHGLEWIGDFYPRTGNTFYNENFKGKVTLTADKSSNTAYMQLSSLTSEDSAVYLCARAGTGFDYWGQGTTLTVSSASTKGPSVFPLAPCSRSTSESTAALGCLVKDYFPEPVTVSWNSGALTSGVHTFPAVLQSSGLYSLSSVVTVPSSSLGTKTYTCNVDHKPSNTKVDKRVESKYGPPCPPCPAPEAAGGPSVFLFPPKPKDTLMISRTPEVTCVVVDVSQEDPEVQFNWYVDGVEVHNAKTKPREEQFNSTYRVVSVLTVLHQDWLNGKEYKCKVSNKGLPSSIEKTISKAKGQPREPQVYTLPPSQEEMTKNQVSLTCLVKGFYPSDIAVEWESNGQPENNYKTTPPVLDSDGSFFLYSKLTVDKSRWQEGNVFSCSVMHEALHNHYTQKSLSLSLG
light: B1 light
notes: H1 + L1, IGHG4 heavy chain isotype (mutated Fc), kappa light chain

IC50 [3]: 0.396 µg/mL
EC50 [5]: 0.0867 µg/mL
EC50 [4]: 0.105 µg/mL
IC50 [6]: 0.881 µg/mL
B5: human-mouse chimeric anti-TrkA monoclonal antibody 23E12 (H0L0-IgG4) (antibody)
heavy: B2 heavy with E1Q, L5Q, E6Q, G9A, G10E, Q13R, G16T, L18V, L20I
light: B1 light with E1S, A9K, T10S, L11M, L13M
notes: Printed mostly as 'HOLO-IgG4' (letter O for zero); also called HOLO-IgG4; chimeric antibody
